Assay results as given in paper doi:10.1101/2022.05.05.490830.
Read-outs that look alike come from different tables or passages of the source.

Tests used:
Experiment in all cases: BLI
[1] = molecular target: T1, hPolεCD (E. coli) (Homo sapiens, UniProt Q07864 28-1194)
[2] = molecular target: T1, hPolεCD (E. coli); remark: listed apart in the source
[3] = molecular target: hPolεCD (insect) (Homo sapiens, UniProt Q07864 28-1194)
Chain of hPolεCD (insect) (Q07864 28-1194): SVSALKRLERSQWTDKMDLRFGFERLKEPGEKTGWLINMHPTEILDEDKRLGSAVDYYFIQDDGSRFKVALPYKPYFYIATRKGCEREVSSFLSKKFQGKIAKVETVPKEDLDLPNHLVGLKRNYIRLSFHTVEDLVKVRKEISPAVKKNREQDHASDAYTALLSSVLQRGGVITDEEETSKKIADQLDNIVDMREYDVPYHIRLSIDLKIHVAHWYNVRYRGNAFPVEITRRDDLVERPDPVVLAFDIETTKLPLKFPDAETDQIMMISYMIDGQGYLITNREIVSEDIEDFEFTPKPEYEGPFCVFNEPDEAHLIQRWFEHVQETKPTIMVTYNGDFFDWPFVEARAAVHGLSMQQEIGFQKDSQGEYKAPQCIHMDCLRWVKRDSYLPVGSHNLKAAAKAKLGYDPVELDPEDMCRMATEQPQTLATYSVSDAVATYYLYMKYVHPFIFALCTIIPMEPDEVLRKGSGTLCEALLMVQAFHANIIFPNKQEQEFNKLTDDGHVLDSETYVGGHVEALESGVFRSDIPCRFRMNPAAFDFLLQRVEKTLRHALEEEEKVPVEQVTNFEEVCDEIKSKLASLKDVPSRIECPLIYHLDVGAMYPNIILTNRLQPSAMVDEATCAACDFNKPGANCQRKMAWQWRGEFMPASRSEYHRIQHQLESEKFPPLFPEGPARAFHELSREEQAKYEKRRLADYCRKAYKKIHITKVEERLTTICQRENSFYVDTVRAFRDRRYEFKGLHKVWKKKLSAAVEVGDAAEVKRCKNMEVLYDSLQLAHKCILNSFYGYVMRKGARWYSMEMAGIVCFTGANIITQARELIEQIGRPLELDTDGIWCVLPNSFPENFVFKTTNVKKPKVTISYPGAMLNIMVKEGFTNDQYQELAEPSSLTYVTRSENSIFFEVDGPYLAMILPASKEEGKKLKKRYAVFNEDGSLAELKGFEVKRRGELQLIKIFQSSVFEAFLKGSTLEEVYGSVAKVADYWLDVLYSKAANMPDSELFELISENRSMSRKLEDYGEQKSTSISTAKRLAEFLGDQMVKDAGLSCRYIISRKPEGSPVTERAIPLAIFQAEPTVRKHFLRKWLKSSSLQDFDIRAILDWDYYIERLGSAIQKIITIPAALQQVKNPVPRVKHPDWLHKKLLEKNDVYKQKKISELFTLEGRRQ

T1 sequence (Q07864 28-1194): as above

B1: Octet template:primer 23/11 (dsDNA)
DNA 1: AATACATAAGCGCTCCAGGCAAT
DNA 2: GCCTGGAGCGC
modifications: 3' dideoxycytidine on primer
Kd [1]: 3260 ± 386 nM
Kd [2]: 167 ± 24 nM
Kd [3]: 213 ± 43 nM
